The subject of assay [1] is IRF-1 and IRF-2 in MeWo cells. Nature of the assay: Immunoblotting of IRF-1 and IRF-2. Format: cell-based, human. The conditions noted are these: within 4 h. On the procedure: Two×10^6 cultured melanoma cell lines were rinsed twice in ice-cold PBS and lysed in 60 μl of lysis buffer [25 mM Tris, 140 mM NaCl, and 1% NP40 (pH 7.5)] containing 5 mM EDTA, 0.2 mM orthovanadate, 10 mM NaF, leupeptin, aprotinin, and phenylmethylsulfonyl fluoride for 10 min on ice. Equal amounts of total protein (measured with DC Protein Assay Reagent; Bio-Rad Labs, Hercules, Calif.) were loaded on a standard 10% SDS polyacrylamide gel, and fractionated proteins were electroblotted onto a nitrocellulose membrane. Nitrocellulose membranes were blocked for 1 h at room temperature using 5% dry milk in 1× PBS and washed three times for 5 min each in PBS containing 0.05% Tween 20 at room temperature. The membranes were incubated overnight at 4° C. in a sealed bag with a 1:2000 dilution of IRF-1 and IRF-2 polyclonal antibodies in 10 ml of 5% dry milk/0.1% Tween 20 in 1× PBS. The membranes were washed three times for 5 min each in PBS containing 0.05% Tween 20, and then incubated with peroxidase-conjugated antirabbit IgG secondary antibody (Transduction Laboratories) at 1:2000 dilution in PBS with 5% dry milk and 0.1 % Tween 20 for 45 min at room temperature. The blots were visualized using an enhanced chemiluminescence detection kit (Amersham, Arlington Heights, Ill.).
(A western blot detects proteins with antibodies after separation by electrophoresis.)

The test system of assay [2] is MiaPaCa2 pancreatic cancer cells. Nature of the assay: MDA-7 protein on pancreatic cancer cells: STAT3 activation, killing. Format: cell-based, human. As for the experimental part: MiaPaCa2 pancreatic cancer cells were treated with purified recombinant human MDA-7 protein, as described in Example 11. By immunofluorescence, substantial activation (phosphorylation) of STAT3 and concomitant movement of p-STAT3 to the nucleus were observed. The STAT3 activation was blocked in the presence of anti-MDA-7 antibodies.

Assay [3] deals with bFGF-induced angiogenesis. Nature of the assay: In vivo Matrigel plug angiogenesis assay. Set-up: species or system athymic nude mice. As to conditions: 12.5 ng in Matrigel with 60 ng bFGF; 10 days. On the procedure: To determine the antiangiogenic activity of sMDA-7, an in vivo angiogenesis assay was performed. Briefly, sMDA-7 (12.5 ng) and bFGF (60 ng) was mixed with 500 μl of Matrigel (Beckton Dickinson, Bedford, Mass.) on ice and injected subcutaneously into athymic nude mice. Animals receiving Matrigel containing only bFGF (60 ng) served as positive controls and animals receiving Matrigel containing no growth factor served as negative controls. Each group comprised of five animals and the experiments were performed twice. Animals were sacrificed 10 days after injection. The Matrigel plugs were recovered, photographed, and subjected to hemoglobin analysis as previously described (Pessaniti et al., 1992).

Assay [4] has as its system iNOS. Nature of the assay: iNOS expression in melanoma cell lines (immunostaining of cytospins). Format: cell-based, human. More on the design: dose or concentration left out as unconfirmed. The conditions noted are these: A375; 48 h. On the procedure: Replication-deficient human type 5 adenovirus (Ad5) carrying the mda-7 gene was obtained from Introgen Therapeutics (Houston, Tex.). The mda-7 gene was linked to an internal CMV-EE promoter and followed by SV40 polyadenylation. Ad-Luc and Ad-CMV polyadenylation (luciferase and empty vector, respectively), were used as control viruses. Cells were plated 1 day before infection. […] Experimental conditions were optimized to achieve MDA-7 protein expression by >70% of cells, based on results of immunohistochemical staining.
[…] At baseline, these melanoma cell lines express high levels of iNOS and are negative for MDA-7. Forty-eight h after vector treatment, the cells were collected, and cytospins were prepared to analyze iNOS expression. […] It has been shown previously that MDA-7 is secreted by Ad-mda7-infected melanoma cells (Lebedova et al., 2002; Mhashilkar et al., 2001).

The subject of assay [5] is HUVEC. Nature of the assay: Endothelial cell differentiation (tube formation) assay on Matrigel. Format: cell-based, human. As for the experimental part: Endothelial cell differentiation (tube formation) assays were done using the in vitro angiogenesis assay kit (Chemicon, Temecula, Calif.). Briefly, HUVEC and HMVEC were grown to 80% confluency, collected, resuspended in growth medium, and plated at a concentration of 2−10^4 cells/well in a 96-well plate coated with Matrigel (Chemicon, Temecula, Calif.). Cells were treated with sMDA-7 protein (1, 5, 10, and 50 ng/ml), or a preparation immunodepleted of sMDA protein for 24 h at 37° C. Cells treated with PBS served as negative controls in these experiments. The ability of sMDA-7 to inhibit tube formation was determined and quantitated by counting the number of tubes under bright-field microscopy.
For experiments involving comparative studies, cells were treated with equimolar concentrations of sMDA-7 (5, 10, and 300 ng/ml), recombinant human endostatin (5.2, 10.4, and 315 ng/ml; Calbiochem, La Jolla, Calif.), recombinant IFN-γ (4.5, 9, and 268 ng/ml; R&D systems, Minneapolis, Minn.) or recombinant IP-10 (2.4, 4.5, and 134 ng/ml; R&D systems, Minneapolis, Minn.) and analyzed for tube formation assay as described above. All samples were tested in duplicate. Experiments were repeated at least 5-6 times.
For receptor blocking studies, HUVEC grown in six-well plates were pretreated with IL-22R1 blocking antibody (1 ng/ml and 5 ng/ml). Following overnight incubation, cells were harvested, washed, and plated in Matrigel coated 96-well plates. Fresh IL-22R1 blocking antibody and sMDA-7 was added to the wells in a 1:1 ratio (1 ng/ml of IL-22R1 antibody:1 ng/ml of sMDA-7) or 1:5 ratio (1 ng/ml of IL-22R1 antibody:5 ng/ml of sMDA-7) and incubated at 37° C. After overnight incubation, the plates were examined for tube formation. All other experimental procedures were the same as described above. […] The relative amount of IL-22R1 used for experiments involving endostatin was 315 ng/ml (1:1 ratio) and 134 ng/ml for experiments involving IP-10 (1:1 ratio). All other experimental procedures were the same as described previously. For blocking studies using anti-IP-10 or anti-IFN-γ neutralizing antibodies (R & D Systems), experiments were conducted as described above for receptor studies except that HUVEC were treated with the appropriate neutralizing antibody (1 μg and 5 μg/ml) prior to treatment with sMDA-7 (300 ng/ml).

Where only a bound is given, the exact number is not on record here.

B1: sMDA-7: soluble secreted human MDA-7 (IL-24) protein purified from stably transfected 293-mda-7 cells (protein)
chain: AQGQEFHFGPCQVKGVVPQKLWEAFWAVKDTMQAQDNITSARLLQQEVLQNVSDAESCYLVHTLLEFYLKTVFKNYHNRTVEVRTLKSFSTLANNFVLIVSQLQPSQENEMFSIRDSAHRRFLLFRRAFKQLDVEAALTKALGEVDILLTWMQKFYKL
For B1, in assay [1], the “fall in IRF-1 expression” value is around 4 fold and the “increase in IRF-2 expression” value stood at 4.7 fold. In assay [2], the “killing of MiaPaCa2 cells” value is listed as “dose-dependent killing” and the “time to evident STAT3 activation” value is at most 30 min. Moreover, the “bFGF-induced angiogenesis (hemoglobin)” value in assay [3] was “significantly inhibited”. For the same molecule, the iNOS expression entry in assay [4] is recorded as “clear down-regulation”. Also, the “inhibitory activity on tube formation in presence of anti-IP-10 or anti-IFN-γ neutralizing antibodies” value in assay [5] is on record as “not lost”. Besides, the tube formation entry in assay [5] (5 ng/ml alone) is reported as “completely inhibited”. In assay [5] (HUVEC and HMVEC, 1, 5, 10, 50 ng/ml), the “formation of capillary tube-like structures” value is reported as “significantly inhibited”. The “concentration required to significantly inhibit HUVEC tube formation” value in assay [5] (equimolar comparison) was 10 ng/mL.

The record behind these values is patent publication US20060134801A1, “Methods and compositions involving MDA-7” (Board of Regents, The University of Texas System, priority 2003, published 2006).
